Molecular target: human DII4 (delta-like ligand 4) (human, UniProt Q9NR61 27-524, limits assumed)
Test: cell-based or functional assay

Chain of human DII4 (delta-like ligand 4) (Q9NR61 27-524 limits assumed, stated change not applied): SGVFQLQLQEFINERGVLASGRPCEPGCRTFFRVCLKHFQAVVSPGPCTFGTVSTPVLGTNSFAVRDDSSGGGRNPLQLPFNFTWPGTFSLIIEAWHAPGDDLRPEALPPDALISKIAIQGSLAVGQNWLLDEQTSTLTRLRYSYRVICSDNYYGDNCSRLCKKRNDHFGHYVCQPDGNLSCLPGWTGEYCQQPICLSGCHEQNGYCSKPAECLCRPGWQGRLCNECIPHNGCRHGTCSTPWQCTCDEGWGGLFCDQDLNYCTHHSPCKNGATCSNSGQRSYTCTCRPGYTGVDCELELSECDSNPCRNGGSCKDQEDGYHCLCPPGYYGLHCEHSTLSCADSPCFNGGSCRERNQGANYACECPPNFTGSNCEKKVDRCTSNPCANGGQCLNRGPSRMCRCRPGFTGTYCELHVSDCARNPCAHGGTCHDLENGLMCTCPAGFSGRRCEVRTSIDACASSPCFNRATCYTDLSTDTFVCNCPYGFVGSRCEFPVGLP

B1: REGN421 (antibody, V domains shown)
VH: QVQLVESGGGVVQPGRSLRLSCAASGFTFSSYGMHWVRQAPGKGLEWVSFLWYDGTNKNYVESVKGRFTISRDNSKNMLYLEMNSLRAEDTAVYYCARDHDFRSGYEGWFDPWGQGTLVTVSS
VL: EIVLTQSPATLSLSPGERATLSCRASQSVSSYLAWYQQKPGQAPRLLIYDASNRATGIPARFSGSGSGTDFTLTISSLEPEDFAVYYCQHRSNWPPTFGGGTKVEIK
  Hey-1 transcript, Post-treatment vs. Pre-treatment ratio (microarray, patient 1, dose 0.25 mg/kg, 24 hours after REGN421 administration): 0.52 ratio
  Hey-1 transcript, Post-treatment vs. Pre-treatment ratio (microarray, patient 2, dose 0.25 mg/kg, 24 hours after REGN421 administration): 0.85 ratio
  Hey-1 transcript, Post-treatment vs. Pre-treatment ratio (microarray, patient 3, dose 0.25 mg/kg, 24 hours after REGN421 administration): 0.77 ratio
  Hey-1 transcript, Post-treatment vs. Pre-treatment ratio (microarray, patient 4, dose 0.25 mg/kg, 24 hours after REGN421 administration): 0.51 ratio
  Hey-1 transcript, Post-treatment vs. Pre-treatment ratio (microarray, patient 5, dose 0.25 mg/kg, 24 hours after REGN421 administration): 0.61 ratio
  Hey-1 transcript, Post-treatment vs. Pre-treatment ratio (microarray, patient 6, dose 0.25 mg/kg, 24 hours after REGN421 administration): 0.55 ratio
  Hey-1 transcript, Post-treatment vs. Pre-treatment ratio (microarray, patient 7, dose 0.25 mg/kg, 24 hours after REGN421 administration): 0.75 ratio
  Hey-1 transcript, Post-treatment vs. Pre-treatment ratio (microarray, patient 8, dose 0.5 mg/kg, 24 hours after REGN421 administration): 0.68 ratio
  Hey-1 transcript, Post-treatment vs. Pre-treatment ratio (microarray, patient 9, dose 0.5 mg/kg, 24 hours after REGN421 administration): 0.82 ratio

Source: US20100330106A1 (Regeneron, published 2010)
